Laboratory results from the supplement of paper PMC9170038.

Test system: MS2 coat protein
Assay: apparent KD of MS2 coat protein; designed switch direction (-1 OFF switch, 1 ON switch): 1; higher = weaker reporter binding
Outline: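 Designed RNA switches with common flanks were made on Illumina chips by stalled E. coli RNA polymerase. Titration with SNAP-549-labelled MS2 coat protein doubled from 0.7 or 1.5 nM up to 3 µM. Apparent KD is each design's median over clusters after curve-fitting normalised fluorescence.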

[1] = Eterna round: R95, input ligand: FMN 200 uM
[2] = Eterna round: R95, input ligand: microRNA oligo, concentration not stated
[3] = Eterna round: R95, input ligand: none
[4] = input ligand: microRNA oligo, concentration not stated

| Sequence | apparent KD of MS2 coat protein [1] [nM] | apparent KD of MS2 coat protein [2] [nM] | apparent KD of MS2 coat protein [3] [nM] | apparent KD of MS2 coat protein (input ligand: FMN 200 uM) [nM] | apparent KD of MS2 coat protein [4] [nM] | apparent KD of MS2 coat protein (input ligand: none) [nM] |
| --- | --- | --- | --- | --- | --- | --- |
| UCUUGGUUUUUGCUCGUUUUUUGUGUUGAACAUGAGGAUCACCCAUGUAUUGUACAGUCCAAUUUGAUAAUGGUCCG [JMF 54] (puzzle: Sensor for hsa-mir-208a) | 37.6 | 32.3 | 44 | – | – | – |
| UCUUGGUUUUUGCUCGUUUUUUGUGUUGAACAUGAGGAUCACCCAUGUAUUGUACGAUCCAGUUAGAUGGUGGUUUG [JR_SHM208A_Sub044] (puzzle: Sensor for hsa-mir-208a) | 63.1 | 70.1 | 91.9 | – | – | – |
| UCUUGGUUUUUGCUCGUUUUUUGUGUUGAACAUGAGGAUCACCCAUGUAUUGUACGAUCCGAUUUAAUAAUGGUCCG [JMF 62] (puzzle: Sensor for hsa-mir-208a) | 63.2 | 55.7 | 83.1 | – | – | – |
| UCUUGGUUUUUGCUCGUUUUUUGUGUUGAACAUGAGGAUCACCCAUGUAUUGUACGGUCCAGUUUAGUGGUAAUCCG [JMF 69] (puzzle: Sensor for hsa-mir-208a) | 33.9 | 20.6 | 36.8 | – | – | – |
| UCUUGGUUUUUGCUCGUUUUUUGUGUUGAACAUGAGGAUCACCCAUGUAUUGUACGGUCCGGUUUAAUAGUGGUCCG [JMF 14] (puzzle: Sensor for hsa-mir-208a) | 27.8 | 15.4 | 28.3 | – | – | – |
| UGAACCGUCACAGGAUAUCAUGCGAAAAUUGCGUGAGAAGGGUGGAUGUUGUGCUCAAAGUUCUACAUGAGGAUCACCCAUGUU [SameState NG1 #44] (Eterna round: R96, puzzle: Same State NG 1) | – | – | – | 61.9 | 33.5 | 60.5 |
| UGAAUAAUGUUAGGAUAUACAUGAGGAAUCCUCGUAGAAGGAACAUGACAUGAGGAUCACCCAUGUAGCGCUCCGUAGAGCGCA [Mat - Same State NG 1 - JL mod - D49] (Eterna round: R96, puzzle: Same State NG 1) | – | – | – | 111 | 39.5 | 250 |
| UGAAUACAUGAGGAUCACCCAUGUCAACGUAGUCGAGGAUAUGGGCAGCCGUGAGGCGUACUAGAAGGCGAAGAGG [JL-ss1-3.07 ViennaUCT mod] (puzzle: Same State 1) | 131 | 89.9 | 175 | – | – | – |
| UGAAUAGUUACAGGAUAUGAUCCGAAAAUUGGGUCAGAAGGGUGGGUGUUGUGCGCUAUGUGCUACAUGAGGAUCACCCAUGUU [SameState NG1 #36] (Eterna round: R96, puzzle: Same State NG 1) | – | – | – | 341 | 22.5 | 41.2 |
| UGAAUGGUGAUAGGAUAUACAUGAGGAAUCCUCGUAGAAGGAUCAUGACAUGAGGAUCACCCAUGUAGCGCUCAGAAGAGCGCA [Mat - Same State NG 1 - JL mod - D53] (Eterna round: R96, puzzle: Same State NG 1) | – | – | – | 129 | 42.4 | 83.9 |
| UGAAUGGUGAUAGGAUAUACAUGAGGAAUCCUCGUAGAAGGAUCAUGACAUGAGGAUCACCCAUGUAGCGCUCCGUAGAGCGCA [JL SSNG1 1.21] (Eterna round: R96, puzzle: Same State NG 1) | – | – | – | 53 | 19.7 | 154 |
